Here are results for one molecule from US20250197505A1 (DREN BIO, published 2025).

One may read the EC50 as the midpoint of the concentration-response curve. Low values mean greater potency, high ones weaker potency. Broadly, the EC50 (read off the curve) is the concentration at which the effect is half-maximal.

In assay [1] the target is T1, human CD94 expressed on cells (human primary NK cells in PBMCs; HEK cells expressing human CD94) (human, UniProt Q13241 1-179).
T1 sequence (looked up): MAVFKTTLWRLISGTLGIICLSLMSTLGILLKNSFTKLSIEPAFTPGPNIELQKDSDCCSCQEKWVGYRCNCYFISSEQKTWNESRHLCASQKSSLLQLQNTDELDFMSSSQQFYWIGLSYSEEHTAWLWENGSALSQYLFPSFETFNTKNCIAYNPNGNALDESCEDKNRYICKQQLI
In words: cell-based or functional assay.

For assay [2], the target named is T1, human CD94 expressed on cells (human …). Briefly: flow cytometry titration (100 nM to 0.046 nM) on primary NK cells in healthy donor PBMCs; human primary NK cells, flow cytometry titration. On the procedure:
Peripheral blood monocuclear cells (PBMCs) of healthy donor HD-40 were used for antibody staining. 18H3 antibody was titrated from 100 nM to 0.046 nM in 1:3 dilutions and incubated with PBMCs. CD3 and CD56 antibodies were used to identify NK cells on the flow scatter. 18H3 antibody binding on […] and CD56 bright NK cells was used to assess affinity of 18H3. Titration curves and EC50 were generated using Graphpad Prism. […] Human IgG1 isotype control with secondary antibody (hIgG1) and goat (Fab)2 fragment anti-human Fcy-specific secondary antibody AF647 only (2ndary Ab) were used as controls.
Healthy donor PBMCs were seeded in 96 well plates at a density of 100,000 cells per well, incubated with human Fc block (Biolegend) and cell viability dye (Thermo Fisher) for 30 minutes on ice and protected from light. […] After incubation, the cells received a final wash in FACS buffer before quantification on the Cytoflex (Beckman Coulter). All data acquisition and fluorescence compensation were performed using CytoFlex (Beckman Coulter, Atlanta, GA). […] CD94 expression was then quantified on the CD3−CD56+NK cell population. […]
The affinity of the antibody clones was also assessed by flow cytometry analysis.

Assay [3] has the same target. In words: competition assay, flow cytometry on CD3-CD56+ NK cells in healthy donor PBMCs; AF647-labelled 18H3 titrated in the presence of Mouse IgG1 control (no competitor). How it is done:
FIGS. 5A-5B show the results of competition assays performed for 18H3 anti-CD94 antibody evaluation. For all competition assays, 18H3 was incubated with PBMCs at a concentration of […]. […] Commercially available anti-CD94 antibodies were titrated and incubated with PBMCs concurrently with 18H3. […] To test competition between 18H3 and 1M4/1E4, 1M4 and 1E4 were incubated with cells at concentrations of 8.5 µg/ml and […], respectively. 18H3 was fluorescently tagged with AF647 and incubated with cells concurrently with […].
Healthy donor PBMCs were seeded in 96-well plates at a density of 100,000 cells per well, incubated with human Fc block (Biolegend) and cell viability dye (Thermo Fisher) for 30 minutes on ice and protected from light. The cells were washed once with FACS buffer (PBS with 2% IgG low FBS). Unconjugated anti-CD94 antibodies at EC80 concentrations, CD3 FITC and CD56 PE antibodies, and APC-labeled anti-CD94 antibodies were incubated with cells for 30 minutes on ice and protected from light. The cells then received a final wash in FACS buffer before quantification on the Cytoflex (Beckman Coulter). All data acquisition and fluorescence compensation were performed using CytoFlex (Beckman Coulter, Atlanta, GA). Data analysis was performed using FlowJo software. […] Anti-CD94 APC was then quantified on the CD3−CD56+NK cell population. […]
For orientation: Flow cytometry measures light scatter and fluorescence of single cells or particles in a stream.

For assay [4] the target is unchanged. In words: HLA-E tetramer blocking assay, flow cytometry on CD3-CD56+ NK cells in healthy donor PBMCs; antibody at one saturating concentration, blocked ligand PE-labelled HLA-E tetramer; percent blocking = 100-((percent HLA-E positive with antibody)/(percent HLA-E positive with isotype)*100). On the procedure:
Healthy donor PBMCs were incubated with anti-CD94 antibodies. PE labeled HLA-E tetramer was then incubated with the cell and antibody mixture, and detected using flow cytometry. For HP-3B1, 131412, 12K45, DX22, 1M4 and 1E4, 2.5 μl of HLA-E tetramer reagent was used, while 5 μl was used for 18H3 and HP-3D9. Saturating concentrations of each antibody was used in this assay. The percent blocking was calculated as 100−((percent HLA-E positive for anti-CD94 antibody)/(percent HLA-E positive for isotype)*100).
Healthy donor PBMCs were seeded in 96-well plates at a density of 100,000 cells per well, incubated with human Fc block (Biolegend) and cell viability dye (Thermo Fisher) for 30 minutes on ice and protected from light. The cells were washed once with FACS buffer (PBS with 2% IgG low FBS). anti-CD94 antibodies at EC80 concentrations were incubated with cells for 30 minutes on ice and protected from light. After incubation with the anti-CD94 antibodies, the cells were washed and incubated with HLA-E tetramer PE (Creative Biolabs), anti-CD3 pacific blue-labelled, and anti-CD56 FITC-labelled antibodies (Biolegend) for 30 minutes on ice and protected from light. The cells then received a final wash in FACS buffer before quantification on the Cytoflex (Beckman Coulter). All data acquisition and fluorescence compensation were performed using CytoFlex (Beckman Coulter, Atlanta, GA). Data analysis was performed using FlowJo software. NK cells were identified through gating on lymphocytes on the forward and side scatter, followed by doublet and dead cell exclusion, and gated on the CD3−CD56+ population. HLA-E expression was then quantified on the CD3−CD56+NK cell population. Percent blocking was calculated as 100−((percent HLA-E positive for anti-CD94 antibody)/(percent HLA-E positive for isotype)*100).

B1: anti-CD94 antibody clone 18H3 (antibody, V domains shown)
VH: EVQLVQSGAEVKKPGESLKISCKGSGYRFTSYWIGWVRQMPGKGLEWMGIIYPGDSDTRYSPSFQGQVIISADKSITTAFLQWSSLKASDTAMYYCARPFDYGGSPGYFDYWGQGTLVTVSS
VL: DIQMTQSPSTLSASVGDRVTITCRASQSIRSWLAWYQQKPGKAPKLLIYKASSLESGVPSRFSGSGSGTEFTLTISSLQPDDFATYYCQQYNTFWTFGQGTKVEIK
notes: also called 18H3-AF647
As for B1, the “percent decrease in MFI (antibody internalization assay), comparing 0.5 hours to 24 hours at 37° C.” value in assay [1] was 24%. In assay [2], this molecule came in with an EC50 of 2.6 nM. The concentration giving a half-maximal response (EC50 (read off the curve)) in assay [3] is around 1 nM. Moreover, the “HLA-E Blocking” value in assay [4] amounted to 0%.
